# Assay results as given in the nanobody polyreactivity screen of Harvey et al. (2022).
# Experiment: yeast display, Sf9 membrane polyspecificity reagent, FACS + sequencing; frameworks hold sequencing errors
# Procedure, shortened: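 A synthetic nanobody library was expressed on Saccharomyces cerevisiae BJ5465 by galactose induction for 36–48 hours. The library was stained for 1 hour at 4 °C with 10% biotinylated, detergent-solubilized Sf9 membrane reagent and enriched with streptavidin microbeads before FACS. Low and high (top ~1%) gates were set on anti-HA fluorescence for expression and streptavidin fluorescence for reagent binding, and each polyreactivity label reflects the gate of origin.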
row,Sequence,polyreactivity (PSR sort gate)
1,QVQLVESGGGLGQAGGSLRLSCAASGFIFGSYAMGWYRQAPGKARELVAAISWSGASTYYADSVKGRFTISRDNAKKTVYLQMNSLIPEDTAVYYCAAVSRYGWYDYWGQGTQVTVSS,high polyreactivity
2,QVQLVESGGGLVQAGGSLRLSCAASGRTLYSNAMGWYRQSPGKERELVAAISSRGGRTYYADSVKGRFTISRDNAKNTVYLQMNSLKPVDTAVYYCNAAYGTGRRQAKSDYWGQGTQVTVSS,high polyreactivity
3,QVQLVESGGGLVQAGGSLRLSCAASGRTFGGYTMGWYRQATGKEMELVAAITGSGSNTYYADSVKGRFTISRDNAKNTVYLQMNSLKPEDTAVYYCAAPYSYRTWYPYGYWGQGTQVTVSS,high polyreactivity
4,QGQLVESGGGLVQAGGSLRLSCAASGRTFYRYAMGWYRQAPGNERELVASMNRGGSTYYADSVKGRFTFSRDNAKNTVYLQMNSLKPEDTAVYYCACYCYCYRGQGTQVTVSS,low polyreactivity
5,QVQLQESGGGLVQAGGSLLSCAASGTISWVDEMGWYLQAPGNERELVAGIAGGGNTNYADSVKGRFTISRDNAKNTVYLQMNSLDTAVYYCAVVGFGRGTHIYWGQGTQVTVSS,high polyreactivity
6,QVQLVESGGGLVQAGGSLRLSCAASGIIFGQNAMGWYRQAPGKERELVAAITISGGSTYYADSVKGRFTISRDNAKNTVYLQMNSLKPEDTAVYYCAARRVTWKDIARGYRYGYWGQGTQVTVSS,low polyreactivity
7,QVQLVESGGGLVQAGGSLRLSCAASGRTFNGYAMGWSRQAPGKERELVAALTGSVGSTYYADSVKGRFTISRDNAKNPGELQLNSLKPDDTAVYYCATRWKATRARYDYWGQGTQVTVTS,high polyreactivity
8,QVQLVESGGGLVQAGGSLRLSCAASGFIFYRYAMGWYRQAPGKEREFVASISGSGGRTYFADSVKGRFTISRDNAKNTVYLQMNSLKPEDTAVYYCNVVSKSRISQYVGYSYDYWGQGTQVTVSS,high polyreactivity
9,QVQLVESGGGLVQAGGRLRLSCAASGIIFDTYVMGWYRQAPGKERELVAAITRSGGRTRYADSVKGRFTISRDNAKNTVYLQMNSLKPEDTAVYYCAARIPDRQDGYGYWGQGTQVTVSS,high polyreactivity
10,QVQLVESGGGLVQAGGSLRLSCAASGFIFYSYAMGWYRQAPGKERELVAAITSSGGNTYYADSVKGRFTISRDNAKNTVYLQMNSLKPEDSAVYYCAASSRFWTFYYGIILYDYWGQGTQVTVSS,high polyreactivity
11,QVQLVESGGGLVQAGGSLRLSCAASGNTFYAYAMGWYRQAPGKERELVASITLSGDSTYYADSVKGRFTISRDNAKNSVYLQMSSLIPEDTAVYYCAGVYTYPLGYYHYTYDYWGQGTQVTVSS,low polyreactivity
12,QVQLVESGGGLVQAGGSLRLSCAASGRIFDYYDMGWYRQAPVKERELVAAITSSGTSTYYADSVKGRFTISRDNAKNTVYLQMNSLKPEDTAVYYCNARSIRPWGENGFWGQGTQVTVSS,high polyreactivity
13,QVQLVESGGGLVQAGGSLRLSCSASGRTFLGYAMGWYRQPPGKERELVAAISWDGTSTYYADSVKGRFTISRDNAKNNVYLQMNSLKTEDTAVYYCAAQYSYRMDYWGQGTQVTVSS,low polyreactivity
14,QVQLVESGGGFVQAGGSLGLSCAASGSIFFVYAMGWYRQAPGKERELVADSTNGGDRNYADSVKGRFTISREHAKNTVYLQMHSLKPEDTAVYDCNARYYGYRSWLEAYNRGDYWGQATQVTVSS,high polyreactivity
15,QVQLVESGGGLVQAGGSLLLSCAASGSTFTQYAMGWYRQAPGKERELVAAINSRGDSTYYADSVKGRFTISRDNAKNTVYLQMNSLKPEDTAVYYCAKDPFPWALFDYWGQGTQVTVSS,low polyreactivity
16,QVQLVESVGGLVQEGGSLRLRCAASGSTFNKYTMGWYRQAPGKERELVAAISLRGGSTYYADSVKGRFTISRDNAKNTVYLQMNSLKPEDTAVYYCNADATHDWLRVDTYEYWGHGTQVTVSS,low polyreactivity
17,QVQLVESGGGLVQAGCSLRLSCAASGFIFTSYAMGWYRQAPGKERDLVAAITRSGGRTYYADSVKGRFTISLDNAKITVYLQMNSLKPEDTAVYYCAAVTFYQSPARGYWGQGTQVTVSS,high polyreactivity
18,QVQLVESGGGLVQAGGSLRLSCAASGRISRGNAMGWYRHAPGKEREFVAAISWSGDGTYYADSVKGRFTISRDNAKNTVYLQMNSLKPEDTAVYYCADGATPRYSKYDYWGQGTQGTVSS,low polyreactivity
19,QVQLVESWGGLVQSGGSLRLSCAASGSIFSFYPMGWYRQAPGKERELVAAISSGGSTYYADSVKGRFTISRDNAKNTVYLQMNSLKPEDTAVYYCAADQHIRVSWYLQMYYWGQGTQVTVSS,low polyreactivity
20,QVQLVESGGGLVQAGGSLRLSCAAYGSIFYYNAMGWYRQAPGKERELVAAITKSGTRTNYADSVKGRFTLSRDNAKNTVYLQMNSLKPEDTAVYYCAAEDQYYRYLFAYEYWGQGTQVTVSS,high polyreactivity
21,QVQLVESGGGLVQAGGSLRLSCAASGITFDYYAMGWYRQAPGKERELVAAISYSGGSTYYADSVKGRFTISRDNAKNTVYVQMNSLKPEDTAVYYCAAETFTISSDYYYWGQGTQVTVSS,low polyreactivity
22,QVQLVESGGGLVQAGGSLRLSCAASGRIFGRTAMGWYRKAPGKERELVAAISWRGGNTYYADSVKGRFTISRDNAKNTVYLQMNSLKPEDTAVYYCNTVQYRNEMGYWGQGTQVTVSS,high polyreactivity

row,Sequence,polyreactivity (PSR sort gate)
1,QVQLVDSRGGLVQAGGSLRLSCAASGLTFGPYAMGRYRQAPGKEREFVAAITWRGGRTNYADSVKGRFTMSRDNAKNTVYLQMNSLKPEDTAVYYCNAVISPHQWIRGGDSWGQGTQVTVSS,low polyreactivity
2,PVQLVESGGGLVQAGGPLRLSCAASGFNITSYVMGWYRPAPGKERELVAAISAGGGSTYYADSVKGRFTISRDNAKNTVYLQMNSLIPDDTAVYYCAADPLYEQIYYAIYHYNDGYDYWGQGTQVTVSS,high polyreactivity
3,QVQLVESGGGLVQAGGSLRLSCAASGFTFTRYAMGWSRQAPGKETELVAAISSGSRTYYADSVKGRFTISRDNAKNTVYLQMNSLKPEDTAVYYCAAPVYTYYGHYDSWGQGTQVTVSS,high polyreactivity
4,QVQLVESGGGLVQAGGSLRLSCAASGFISGGNAMGWYRQAPGKEREFVAAIDNTGSTYYADSVKGRFTISRDNAKNTVYLQMNSLKPEDTAVYYCNAEVSEDYVDNDYWGQGTQVTVSS,low polyreactivity
5,QVQLVESGGGLVQAGGSLRLSCAASGFIFTGNAMGWYRQAPGKERELVAAITGRGSTYYADSVKGRFTISRDNGKNSVYLQMNSLKPEDTAVYYCAAKRWWQYYWGQGTQVTVSS,high polyreactivity
6,QVQLVESGGGLVQAGGSLRLSCAASGRNIWGYTMGWYRQAPGKERDLVAAIRFTSGSTYYADSVKGRFTISRDNAKNSVYLQMNSLKPEDTAVYYCATPYVQTGSGYTGVYWGQGTQVTVSS,high polyreactivity
7,QVQLVESGGGLVQAGGSVRLSCGASGSIFLGNSMGWYRQAPGTLRELVAAISSITGSTYYADSVKGRFSISRDIAKNTVYLQMNRLKQEETGVYYCARVPDTEGEYWGQGTQVTVSS,high polyreactivity
8,QVQLVESGGGLVQAGGSLRLSCAASGRTFYTYAMGWYRQAPGKERELVAAISISGSRTYYADSVKGRFTISRDNAKNTVYLQMNSLKPEDTAVYYCAADRSYWAYVFQYVSYGEDYWGQGTQVTVSS,high polyreactivity
9,QVQLVESGGGLVQAGGSLRLSCAASGFIFLVNAMGWYSGAPGKERELVAAISKSTGGTYYADSVKGRFTISRDNAKNTVYLQMNSLKPEDTAVYYCAADEVYPVQRDMDYWGQGTQVTVSS,low polyreactivity
10,QVQLVESGGGLVQAGGSLRLSCAASGRIFGGNAMGWYRPAPGKERELVGGISRRGGSTYYADSVKGRFTISRDNAKNTVYLQMYSLKPEDTAVYYCNAYYRYSVFAEKYDYWGQGTQVTVSS,high polyreactivity
11,QVQLVESGGGLVQAGGSLRLSCAASGFIDAYTMGWYRPAPGKERELVAAITWSGGRTSYADSVKGRFTISRDTAKNTVYLQMNSLKPEDTAGYYCAKDVTPYSPDDDYWGQGTQVTVSS,low polyreactivity
12,QVQLVESGGGLVQAGGSLRLSCAASGSIFPSYAMGWYRQAPGKERELVATIGRGGTTNYADSVKGRFTISRDNAKNTVYLQMNSLKPEDTAVYYCNAERIWRYKYGYDYWGQGTQVTVSS,high polyreactivity
13,QVQLVESGGGLVQAGGSLRLSCAASGIIFIGYAMGWYRQAAGKERELVAAITRSGVSTYYADSVKGRFTISRDNAKNTVYLQMNSLKPEDTAVYYCAARYFGEKYSQGFDYWGQGTQVTVSS,low polyreactivity
14,QVQLVESGGGLVQAGGSLRLRCAASGRIFRYYAMGWYRQAPGKESELVAAITSSGGSTFYADSVKARFTISRDNAKNTVYLQMNSLKPEDTAVYYCAAPRGTRKTYNSWGQGTQVTVSS,high polyreactivity
15,QVQLVESGGGLVQAGGSLRLSSAASGSILWQYAMGWYRQAPGKERELVAAITYSGGSTHYADSVKGRFTISRDNAKNTVYLQMNSLKPEDTAVYYCAAGYWSRYAALRYDHWGQGTQVTVSS,low polyreactivity
16,QVQLQESGGGLVQAGGSLRLSCAASGTIFRPATKGWYRQAPGKECEFVASITIGTITNYADSVKGRFTISRDNAKNTVYLQMNSLKPEDTAVYYCAVYGTWEVDLYYWGQGTQVTVSS,high polyreactivity
17,QVQLVESGGGLVQAGGSLRLSCAASGFTFYRYTMGWYIQAPGKERELVAAISARGVSTYYADSVKGRFTISRDIAKNTVYLQMNSLKPEDTAVYYCYVSRYDSWGQGTQVTVSS,high polyreactivity
18,QVLLQESGGGLVQAGGSLRLSCAASGSIFLFYTMGWYRQAPVKEREFVAGITLGTTTYNADSVKGRFTISRDNVKNTLYLQMNSLKPEDTAVYYCAVAVGHYTEFWYWGQGTQVTMSS,high polyreactivity
19,QVQLVESGGGLVQAGGSLRLSCAASGSIFAGYAMGWYRQAPGKERELVAVISSTGSTYYADSVKGRFTISRDNAKNTVYLQMNSLKPEDTAVYYCAAGDVGYSYYRIYSRMDYWGQGTQVTVSS,low polyreactivity
20,QVQLVESGGGVVQAGGSLRLSCAASGSTCSWYVMGWYRQAPGKERELVASISRSGGSTYYADSVKGRFTISRDNAKNTVYLQMNSLKPEDTAVYYCAARQAGYSGRKLYYWAQGTQVTVSS,low polyreactivity
21,QVQLVESGGGLVQAGGSLRLSCAAYGLIFGHYAMGWYRQEPGKERELVAAITTRGSSTYYADSVKGRFTISRDNAKNTVYLQMNSLKPEDTAVYYCNAKLVYGTTYKFDNWGQGTQVTVSS,high polyreactivity
